These results are taken from paper PMC5814221.

The target of this assay is Growth arrest-specific protein 6 (GAS6) (UniProt Q63772).
Sequence of UniProt Q63772 (Q63772 28-674): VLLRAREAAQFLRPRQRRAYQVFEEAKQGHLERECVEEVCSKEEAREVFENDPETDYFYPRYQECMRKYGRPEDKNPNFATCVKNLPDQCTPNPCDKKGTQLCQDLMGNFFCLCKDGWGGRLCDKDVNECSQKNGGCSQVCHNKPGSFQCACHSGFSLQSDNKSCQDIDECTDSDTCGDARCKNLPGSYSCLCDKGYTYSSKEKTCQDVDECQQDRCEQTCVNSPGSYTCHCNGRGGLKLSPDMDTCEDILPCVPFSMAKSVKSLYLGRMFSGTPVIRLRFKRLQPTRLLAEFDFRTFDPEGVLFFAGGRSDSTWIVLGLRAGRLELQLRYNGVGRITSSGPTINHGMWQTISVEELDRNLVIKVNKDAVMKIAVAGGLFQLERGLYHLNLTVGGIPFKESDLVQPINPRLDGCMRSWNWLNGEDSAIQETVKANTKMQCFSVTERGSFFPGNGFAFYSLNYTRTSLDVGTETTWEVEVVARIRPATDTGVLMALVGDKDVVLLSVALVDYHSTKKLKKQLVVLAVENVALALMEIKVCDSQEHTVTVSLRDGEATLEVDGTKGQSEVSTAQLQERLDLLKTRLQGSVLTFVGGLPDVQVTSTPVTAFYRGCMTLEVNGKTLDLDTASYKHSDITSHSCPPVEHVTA

For “AXL-Fc protein fragment (soluble form of AXL) (Fc fusion)”, the proliferation of RSC96 cells (WST-1) treated with AXL-Fc, percent decrease after 24 h, 48 h and 72 h (31.3%, 35.1%, 43.1%) worked out at 43.1 % decreased.
